Results reported in patent US20040102606A1, “Histone H2A -derived peptides useful in gene delivery” (priority 2003, published 2004).

Tested on: syngeneic mouse model of neuroblastoma
Assay: Vaccination with histone H2A-transfected NXS2 cells, syngeneic mouse model of neuroblastoma
Format: in vivo
Details: subcutaneous immunization, histone H2A transient transfection; challenge with wild type tumor cells
From the text: The present invention also contemplates use of the H2A-derived peptides to facilitate gene delivery in vivo. This embodiment is based on the successful subcutaneous immunization in a novel syngeneic mouse model of neuroblastoma with a single chain IL-12 fusion protein that was mediated by histone H2A transient transfection.
For this approach with intact histone H2A and also extendable to the peptides of this invention, mouse IL-2 and scIL-12 were cloned into the expression vector pcDNA3.1 (Invitrogen, Carlsbad, Calif.) as previously described (Lode et al., Proc. Natl. Acad. Sci., USA, 95:2475-2480, 1998). […] Supercoiled DNA was quantitated on 0.9% agarose gels using Stratagene's Eagle Eye. […] production was quantified on a 24 hour basis in cell culture supernatants using an ELISA assay kit (Biosource, Camarillo, Calif.) and compared with standard preparations of these cytokines. […]
NXS2 cells were tested routinely for the absence of mycoplasma contamination (Gen Probe® Mycoplasma Rapid Detection System, Fisher Scientific, Pittsburgh, Pa.). […] Cell viability was determined using trypan blue staining (Life Technologies, Gaithersburg, Md.), and the number of viable cells per experimental condition were determined. […]

B1: IL-2: mouse IL-2 expressed from pcDNA3.1 in transfected NXS2 cells (protein, UniProt P04351 21-169, looked up)
Interleukin-2: APTSSSTSSSTAEAQQQQQQQQQQQQHLEQLLMDLQELLSRMENYRNLKLPRMLTFKFYLPKQATELKDLQCLEDELGPLRHVLDLTQSKSFQLEDAENFISNIRVTVVKLKGSDNTFECQFDDESATVVDFLRRWIAFCQSIISTSPQ
tumor immunity: no tumor immunity
